Measured values published in publication PMC9443943.

B1: Transmembrane 4 L six family member 5 (TM4SF5): N138A/N155Q, Gly− (protein)
parent chain: MCTGKCARCVGLSLITLCLVCIVANALLLVPNGETSWTNTNHLSLQVWLMGGFIGGGLMVLCPGIAAVRAGGKGCCGAGCCGNRCRMLRSVFSSAFGVLGAIYCLSVSGAGLRNGPRCLMNGEWGYHFEDTAGAYLLNRTLWDRCEAPPRVVPWNVTLFSLLVAASCLEIVLCGIQLVNATIGVFCGDCRKKQDTPH
B2: Transmembrane 4 L six family member 5 (TM4SF5): N138A (protein)
parent chain: B1 parent chain
B3: Transmembrane 4 L six family member 5 (TM4SF5): N155Q (protein)
parent chain: B1 parent chain

Columns and labels:
[1] = sucrose gradient sEV fractions from SNU449, Strep immunoblot; settings: glycan lost; control: TM4SF5-WT
[2] = immunoblot of sEVs from transfected Huh7 cells; settings: glycan lost; control: TM4SF5-Strep WT

Row | Protein | localisation_or_trafficking [1] | localisation_or_trafficking [2]
1 | B1 | abolishes | abolishes
2 | B2 |  | decreases
3 | B3 |  | no change
